In patent US20090029376 one finds activity (fidelity index) data, which are given here for one substance.

Experiment in all cases: cleavage_in_vitro
Data set [1] addresses T1, PstI (Providencia stuartii 164) (UniProt P00640).
T1 sequence: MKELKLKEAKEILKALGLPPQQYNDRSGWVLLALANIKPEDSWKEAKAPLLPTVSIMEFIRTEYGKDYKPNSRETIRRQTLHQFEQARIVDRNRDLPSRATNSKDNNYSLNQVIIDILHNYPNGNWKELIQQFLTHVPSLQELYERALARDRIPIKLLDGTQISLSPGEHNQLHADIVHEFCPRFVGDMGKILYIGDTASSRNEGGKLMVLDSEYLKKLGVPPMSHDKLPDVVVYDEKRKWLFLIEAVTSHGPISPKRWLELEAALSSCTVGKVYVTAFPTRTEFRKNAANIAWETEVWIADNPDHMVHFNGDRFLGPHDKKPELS
As to conditions: NEB4, 37 C.

Data set [2] deals with T2, PstI-HF D91A (Providencia stuartii 164) (UniProt P00640).
T2 sequence: T1 sequence with D91A
As to conditions: NEB4, 37 C.

Data set [3] concerns the target T3, HpaI (Haemophilus parainfluenzae) (UniProt P29537).
T3 sequence: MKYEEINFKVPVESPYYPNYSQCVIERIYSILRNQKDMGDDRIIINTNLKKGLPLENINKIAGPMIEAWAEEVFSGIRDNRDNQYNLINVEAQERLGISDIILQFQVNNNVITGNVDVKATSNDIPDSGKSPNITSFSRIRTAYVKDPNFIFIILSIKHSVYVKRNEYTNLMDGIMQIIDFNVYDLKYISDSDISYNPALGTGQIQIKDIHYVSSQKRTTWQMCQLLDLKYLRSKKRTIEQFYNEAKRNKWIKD
As to conditions: NEB4, 37 C.

Data set [4] relates to T4, SbfI (Streptomyces species Bf-6).
T4 sequence: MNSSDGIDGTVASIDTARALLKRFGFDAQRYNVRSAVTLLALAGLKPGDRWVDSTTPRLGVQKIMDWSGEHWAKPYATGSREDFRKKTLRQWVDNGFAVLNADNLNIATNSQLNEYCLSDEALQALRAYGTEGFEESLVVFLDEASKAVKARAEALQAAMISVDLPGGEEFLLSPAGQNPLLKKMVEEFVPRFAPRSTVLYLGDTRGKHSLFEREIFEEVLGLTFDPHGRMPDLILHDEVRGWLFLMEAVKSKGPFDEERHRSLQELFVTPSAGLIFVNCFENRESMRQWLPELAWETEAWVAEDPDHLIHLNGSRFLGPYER
As to conditions: NEB4, 37 C.

Data set [5] addresses T5, HindIII (Haemophilus influenzae Rd) (UniProt P43870).
T5 sequence: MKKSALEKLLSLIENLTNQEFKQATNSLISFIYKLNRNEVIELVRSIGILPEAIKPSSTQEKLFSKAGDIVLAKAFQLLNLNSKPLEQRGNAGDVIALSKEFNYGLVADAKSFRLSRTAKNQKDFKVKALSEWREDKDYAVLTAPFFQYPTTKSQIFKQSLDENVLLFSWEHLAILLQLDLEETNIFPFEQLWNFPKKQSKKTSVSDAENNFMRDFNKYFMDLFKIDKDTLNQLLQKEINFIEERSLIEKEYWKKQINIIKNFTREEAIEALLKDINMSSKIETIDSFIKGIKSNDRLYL
As to conditions: NEB4, 37 C.

In data set [6] the test system is T6, BsmBI-HF N185Y/R232A (Bacillus stearothermophilus).
T6 sequence: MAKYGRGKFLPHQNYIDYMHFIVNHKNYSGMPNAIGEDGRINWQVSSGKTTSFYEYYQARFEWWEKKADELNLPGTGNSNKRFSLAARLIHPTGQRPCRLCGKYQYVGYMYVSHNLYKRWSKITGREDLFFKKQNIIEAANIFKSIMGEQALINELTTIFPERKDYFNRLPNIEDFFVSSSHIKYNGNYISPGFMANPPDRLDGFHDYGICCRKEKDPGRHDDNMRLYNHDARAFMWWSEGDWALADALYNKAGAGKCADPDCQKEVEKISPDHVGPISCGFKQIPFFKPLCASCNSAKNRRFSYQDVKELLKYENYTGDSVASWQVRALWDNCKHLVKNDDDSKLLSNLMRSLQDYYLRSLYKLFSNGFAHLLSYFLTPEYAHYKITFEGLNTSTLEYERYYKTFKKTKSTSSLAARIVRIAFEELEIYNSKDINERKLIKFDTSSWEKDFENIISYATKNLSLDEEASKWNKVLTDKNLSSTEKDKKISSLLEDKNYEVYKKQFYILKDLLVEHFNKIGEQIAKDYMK
As to conditions: NEB4, 55 C.

The subject of data set [7] is T7, SapI (Saccharopolyspora sp.).
T7 sequence: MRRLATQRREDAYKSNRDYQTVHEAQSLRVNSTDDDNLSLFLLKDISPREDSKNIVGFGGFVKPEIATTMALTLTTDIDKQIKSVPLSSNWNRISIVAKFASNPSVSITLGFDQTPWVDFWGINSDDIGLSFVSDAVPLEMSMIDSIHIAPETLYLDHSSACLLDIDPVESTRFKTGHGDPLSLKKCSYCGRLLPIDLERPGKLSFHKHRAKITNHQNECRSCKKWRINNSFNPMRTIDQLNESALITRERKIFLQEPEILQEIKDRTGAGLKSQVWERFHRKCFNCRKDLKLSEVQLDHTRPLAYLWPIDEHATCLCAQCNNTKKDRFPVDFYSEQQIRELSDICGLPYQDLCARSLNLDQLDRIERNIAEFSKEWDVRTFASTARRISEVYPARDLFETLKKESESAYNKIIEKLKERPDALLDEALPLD
As to conditions: NEB4, 37 C.

The target in data set [8] is T8, BamHI (Bacillus amyloliquefaciens) (UniProt P23940).
T8 sequence: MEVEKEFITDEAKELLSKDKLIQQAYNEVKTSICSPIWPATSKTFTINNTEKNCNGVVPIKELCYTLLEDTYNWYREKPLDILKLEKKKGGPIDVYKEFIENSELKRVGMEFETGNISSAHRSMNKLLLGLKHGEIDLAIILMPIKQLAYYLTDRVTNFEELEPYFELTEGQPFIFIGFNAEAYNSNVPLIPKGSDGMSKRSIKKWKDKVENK
As to conditions: NEB4, 37 C.

Residue numbers refer to the chain shown, from its start.

Consider lambda phage DNA, for which the activity (fidelity index) in data set [1] was 8; in data set [2], greater than 2000; in data set [3] it was 16; in data set [4], 8; in data set [5], 32; in data set [6], greater than 500. The activity (fidelity index) stood at 16 in data set [7] and 4 in data set [8].
